Results from patent US20230044825A1 (CZ BIOHUB SF, published 2023).

Target: ATXN2 (UniProt Q99700 1-1313, limits assumed)
Test: fluorescence microscopy, co-localization in cells

ATXN2, sequence (Q99700 whole entry): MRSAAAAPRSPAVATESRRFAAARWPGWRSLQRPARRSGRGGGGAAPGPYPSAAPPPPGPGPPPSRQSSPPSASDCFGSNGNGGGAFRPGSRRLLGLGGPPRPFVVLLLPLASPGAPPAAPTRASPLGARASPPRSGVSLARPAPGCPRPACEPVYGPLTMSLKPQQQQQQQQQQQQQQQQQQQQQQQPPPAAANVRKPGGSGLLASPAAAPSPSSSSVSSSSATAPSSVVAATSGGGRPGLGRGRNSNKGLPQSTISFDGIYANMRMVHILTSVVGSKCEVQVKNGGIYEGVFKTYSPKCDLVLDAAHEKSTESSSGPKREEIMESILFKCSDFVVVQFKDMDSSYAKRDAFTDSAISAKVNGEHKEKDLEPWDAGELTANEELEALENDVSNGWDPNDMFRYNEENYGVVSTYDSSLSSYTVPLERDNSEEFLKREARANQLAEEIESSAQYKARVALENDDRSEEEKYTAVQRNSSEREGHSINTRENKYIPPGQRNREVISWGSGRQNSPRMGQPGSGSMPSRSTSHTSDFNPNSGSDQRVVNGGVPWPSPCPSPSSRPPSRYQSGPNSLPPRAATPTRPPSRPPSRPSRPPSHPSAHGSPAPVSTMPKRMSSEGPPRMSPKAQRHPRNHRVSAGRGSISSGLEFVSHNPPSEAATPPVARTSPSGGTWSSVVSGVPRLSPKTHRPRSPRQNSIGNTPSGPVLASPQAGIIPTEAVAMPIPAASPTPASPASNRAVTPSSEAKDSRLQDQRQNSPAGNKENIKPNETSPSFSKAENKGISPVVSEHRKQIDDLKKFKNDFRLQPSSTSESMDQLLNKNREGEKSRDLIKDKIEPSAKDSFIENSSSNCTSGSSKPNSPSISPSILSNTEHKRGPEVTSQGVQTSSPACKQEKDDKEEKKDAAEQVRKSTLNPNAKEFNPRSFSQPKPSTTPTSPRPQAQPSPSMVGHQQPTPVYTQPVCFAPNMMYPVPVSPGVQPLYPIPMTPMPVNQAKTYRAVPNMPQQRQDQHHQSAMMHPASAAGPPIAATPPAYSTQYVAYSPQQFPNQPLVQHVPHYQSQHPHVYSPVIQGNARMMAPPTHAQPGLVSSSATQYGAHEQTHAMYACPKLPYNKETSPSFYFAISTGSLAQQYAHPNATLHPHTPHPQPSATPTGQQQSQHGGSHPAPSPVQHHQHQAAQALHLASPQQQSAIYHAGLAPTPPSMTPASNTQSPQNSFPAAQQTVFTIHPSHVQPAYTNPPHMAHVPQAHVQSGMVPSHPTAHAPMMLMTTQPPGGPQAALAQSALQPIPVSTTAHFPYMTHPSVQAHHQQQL

binding result: no binding
B1: GFP-PopTag (other)
chain: GGGGSGGGGSGGGGSGGGGSEVAEQLVGVSAASAAASAFGSLSSALLMPKDGRTLEDVVRELLRPLLKEWLDQNLPRIVETKVEEEVQRISRGRGA
notes: also called GFP-PopTag condensates; not shown: GFP; constructs subcloned into pcDNA3.1+N-eGFP
